From patent publication US20130064833A1

Target: hepatocyte growth factor receptor (HGFR) (UniProt P08581)
Assay: cell-based or functional assay

Sequence of UniProt P08581 (P08581 25-1390 limits assumed): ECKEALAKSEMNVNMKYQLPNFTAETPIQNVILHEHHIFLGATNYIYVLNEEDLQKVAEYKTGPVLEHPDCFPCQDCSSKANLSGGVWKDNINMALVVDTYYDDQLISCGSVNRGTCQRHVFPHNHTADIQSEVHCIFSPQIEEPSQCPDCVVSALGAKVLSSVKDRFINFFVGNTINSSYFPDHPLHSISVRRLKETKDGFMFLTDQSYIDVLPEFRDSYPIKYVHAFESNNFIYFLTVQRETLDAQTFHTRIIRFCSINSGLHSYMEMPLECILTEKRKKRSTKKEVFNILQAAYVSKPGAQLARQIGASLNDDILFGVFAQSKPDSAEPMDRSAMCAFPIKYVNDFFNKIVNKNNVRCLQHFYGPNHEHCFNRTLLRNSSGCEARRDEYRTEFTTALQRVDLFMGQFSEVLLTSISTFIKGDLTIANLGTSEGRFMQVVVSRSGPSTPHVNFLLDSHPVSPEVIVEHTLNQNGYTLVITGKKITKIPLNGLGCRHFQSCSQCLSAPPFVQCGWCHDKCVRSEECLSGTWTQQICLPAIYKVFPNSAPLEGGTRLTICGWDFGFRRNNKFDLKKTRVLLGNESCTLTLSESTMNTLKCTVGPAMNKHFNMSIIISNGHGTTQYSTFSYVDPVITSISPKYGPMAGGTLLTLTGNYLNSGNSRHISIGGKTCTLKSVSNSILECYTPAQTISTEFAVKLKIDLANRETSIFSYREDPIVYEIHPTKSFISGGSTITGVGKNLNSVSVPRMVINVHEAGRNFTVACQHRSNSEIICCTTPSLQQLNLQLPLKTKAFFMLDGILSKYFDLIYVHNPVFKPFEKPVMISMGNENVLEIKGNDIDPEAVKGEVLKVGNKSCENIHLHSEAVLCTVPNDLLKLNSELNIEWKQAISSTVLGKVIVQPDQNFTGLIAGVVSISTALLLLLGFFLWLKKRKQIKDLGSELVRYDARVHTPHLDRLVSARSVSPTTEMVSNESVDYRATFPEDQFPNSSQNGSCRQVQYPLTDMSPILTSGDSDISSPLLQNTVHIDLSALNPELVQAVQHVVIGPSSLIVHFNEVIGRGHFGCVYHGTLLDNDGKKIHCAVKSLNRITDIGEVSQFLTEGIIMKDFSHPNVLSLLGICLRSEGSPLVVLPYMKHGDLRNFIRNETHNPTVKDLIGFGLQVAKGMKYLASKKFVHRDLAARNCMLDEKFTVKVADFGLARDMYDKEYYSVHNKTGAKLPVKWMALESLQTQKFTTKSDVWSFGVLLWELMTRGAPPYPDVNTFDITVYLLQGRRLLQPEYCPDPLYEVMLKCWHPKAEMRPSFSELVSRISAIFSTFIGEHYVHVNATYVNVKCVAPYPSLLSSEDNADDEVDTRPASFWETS

Substance: hepatocyte growth factor (HGF) (ligand)
- LEC proliferation, minimal effective concentration: 1 ng/mL
